Experimental data taken from patent US20250011471A1 (published 2025).

T1: mouse KLB (mouse, UniProt Q99N32 53-990)
T1 construct: KLB cDNA in pRK vector, transiently expressed on HEK293T cells for FACS
T1 sequence: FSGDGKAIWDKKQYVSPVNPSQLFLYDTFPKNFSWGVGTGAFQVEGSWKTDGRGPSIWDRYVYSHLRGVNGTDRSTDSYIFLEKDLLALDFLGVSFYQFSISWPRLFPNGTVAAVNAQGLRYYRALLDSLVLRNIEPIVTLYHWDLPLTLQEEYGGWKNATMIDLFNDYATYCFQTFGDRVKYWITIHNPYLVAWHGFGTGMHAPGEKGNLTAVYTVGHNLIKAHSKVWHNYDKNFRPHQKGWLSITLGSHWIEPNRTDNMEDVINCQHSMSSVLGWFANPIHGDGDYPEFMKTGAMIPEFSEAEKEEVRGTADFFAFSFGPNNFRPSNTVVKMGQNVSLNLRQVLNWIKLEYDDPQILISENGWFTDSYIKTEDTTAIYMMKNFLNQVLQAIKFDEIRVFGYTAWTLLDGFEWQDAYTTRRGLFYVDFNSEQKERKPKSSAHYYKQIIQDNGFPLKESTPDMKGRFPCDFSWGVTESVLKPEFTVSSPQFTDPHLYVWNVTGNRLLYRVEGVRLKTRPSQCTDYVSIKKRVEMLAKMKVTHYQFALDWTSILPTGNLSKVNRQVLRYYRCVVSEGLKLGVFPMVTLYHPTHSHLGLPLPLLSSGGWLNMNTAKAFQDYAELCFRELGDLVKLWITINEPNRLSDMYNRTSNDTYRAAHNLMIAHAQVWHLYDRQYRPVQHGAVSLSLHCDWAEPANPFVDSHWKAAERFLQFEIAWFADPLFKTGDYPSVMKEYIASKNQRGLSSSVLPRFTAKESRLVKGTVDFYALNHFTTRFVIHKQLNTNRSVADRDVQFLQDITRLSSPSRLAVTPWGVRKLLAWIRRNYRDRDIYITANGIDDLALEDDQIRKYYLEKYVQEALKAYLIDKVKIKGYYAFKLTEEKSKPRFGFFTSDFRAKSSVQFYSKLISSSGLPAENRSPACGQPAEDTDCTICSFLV


Assays:
human KLB on cells = target: T2, human KLB on cells (human, UniProt Q86Z14 53-1044); experiment: radiolabeled ligand cell binding assay on stable HEK293 cells, iodinated against unlabeled protein
T2 construct: also called hKLB; beta-Klotho

mouse KLB = target: T1, mouse KLB; experiment: as above
human FGFR1c on cells [1] = target: T3, human FGFR1c on cells (human, UniProt P11362 22-822); experiment: as above
T3 construct: HEK293 cells expressing FGFR1c without KLB; also called hFGFR1c
T3 sequence (P11362 other isoform, or with tags, fused parts or gaps limits assumed): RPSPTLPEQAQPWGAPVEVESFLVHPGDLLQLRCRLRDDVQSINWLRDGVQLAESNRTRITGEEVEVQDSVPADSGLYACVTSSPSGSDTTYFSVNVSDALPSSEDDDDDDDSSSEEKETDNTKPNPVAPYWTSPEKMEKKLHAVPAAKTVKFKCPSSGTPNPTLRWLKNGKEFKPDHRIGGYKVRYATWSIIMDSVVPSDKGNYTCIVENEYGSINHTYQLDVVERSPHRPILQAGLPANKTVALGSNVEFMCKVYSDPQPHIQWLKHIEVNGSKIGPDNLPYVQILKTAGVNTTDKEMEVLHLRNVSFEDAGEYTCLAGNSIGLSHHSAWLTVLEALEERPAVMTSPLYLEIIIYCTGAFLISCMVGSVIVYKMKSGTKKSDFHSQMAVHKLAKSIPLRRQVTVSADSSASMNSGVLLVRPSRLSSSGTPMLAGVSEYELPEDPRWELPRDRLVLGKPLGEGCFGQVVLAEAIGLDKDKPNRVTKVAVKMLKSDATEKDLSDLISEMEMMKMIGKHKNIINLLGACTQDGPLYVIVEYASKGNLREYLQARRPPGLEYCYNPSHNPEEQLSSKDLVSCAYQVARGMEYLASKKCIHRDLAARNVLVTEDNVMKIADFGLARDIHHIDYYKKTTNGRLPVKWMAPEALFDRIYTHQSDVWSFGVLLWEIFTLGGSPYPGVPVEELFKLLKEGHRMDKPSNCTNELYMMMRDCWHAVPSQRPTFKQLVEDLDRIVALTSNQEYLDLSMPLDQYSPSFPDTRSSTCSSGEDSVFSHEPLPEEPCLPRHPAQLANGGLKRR

[2] = target: T4, human KLB/human FGFR1c complex on HEK293 cells (human, UniProt Q86Z14 53-1044; P11362 22-822); experiment: as above
T4 construct: both receptors coexpressed on the same cells; Also used for L6 and COS7 cells transfected with both receptors (COS7: SNAP-tagged FGFR1c); also called FGFR1c/KLB complex

[3] = target: T4, human KLB/human FGFR1c complex on …; experiment: cell-based or functional assay
human FGFR1c on cells [4] = target: T3, human FGFR1c on cells; experiment: radiolabel ligand assay on cells expressing only FGFR1c; could not be determined reliably

Kd (human KLB on cells) [nM]	Kd (mouse KLB) [nM]	Kd (human FGFR1c on cells [1]) [nM]	Kd [2] [nM]	EC50 in GAL-ELK1 assay in HEK293 cells [3] [nM]	Kd (human FGFR1c on cells [4]) [nM]	Binder
6.6	15.5	300	2.3	3.2	> 300	BsAb10 (bispecific antibody) chain 1: EVQLVESGGGLVQPGGSLRLSCAASGFTFTSNWISWVRQAPGKGLEWVAEIDPYDGATDYADSVKGRFTISADTSKNTAYLQMNSLRAEDTAVYYCATGTDVMDYWGQGTLVTVSS chain 2: DIQMTQSPSSLSASVGDRVTITCRASQDVSTAVAWYQQKPGKAPKLLIYSASFLYSGVPSRFSGSGSGTDFTLTISSLQPEDFATYYCQQSYTTPPTFGQGTKVEIK chain 3: QVQLKQSGPGLVQPSQSLSVACTVSDFSLTTYGVHWVRQSPGKGLEWLGVIWSGGSTDYNAAFISRLTISKDNSKSQVFFKMNSLQTTDTAIYYCARDYGSTYVDAIDYWGQGTSVTVSS chain 4: DIVLTQSPTSLAVSLGQRATISCRASESVESYGNRYMTWYQQKPGQPPKLLIYRAANLQSGIPARFSGSGSRTDFTLTIDPVEADDVATYYCQQSNEDPWTFGGGTKVEIK
9.8		300	2.2			BsAb9 (bispecific antibody) chain 1: EVQLVESGGGLVQPGGSLRLSCAASGFTFTSNWISWVRQAPGKGLEWVAEIDPYDGATDYADSVKGRFTISADTSKNTAYLQMNSLRAEDTAVYYCATGTDVMDYWGQGTLVTVSS chain 2: DIQMTQSPSSLSASVGDRVTITCRASQDVSTAVAWYQQKPGKAPKLLIYSASFLYSGVPSRFSGSGSGTDFTLTISSLQPEDFATYYCQQSYTTPPTFGQGTKVEIK chain 3: EVKFLESGGGLVQPGGSLRLSCAVSGIDFSRYWMSWVRQAPGKGLEWIGEISPDSSTINYTPSLKDKFVISRDNAKNTLYLQMSKVRSADTALYYCARPSPALDYWGQGTLVTVSA chain 4: DIVMTQSPATLSVTPGDRVSLSCRASQSISDYVYWYQQKSHESPRLLIIYASQSISGIPSRFSGSGSGSDFTLSINSVEPEDVGVYYCQNGHNFPYTFGGGTKLEIK
